Reference: PMC7979924, “Lin28, a major translation reprogramming factor, gains access to YB-1-packaged mRNA through its cold-shock domain”

How the values were obtained:
Lin28-CSD = target: T1, Lin28-CSD (Homo sapiens, UniProt Q9H9Z2 32-136); assay: NMR (1H-15N HSQC); 298 K; EMSA: 20 mM Tris pH 7.6, 40 mM NaCl, 0.5 mM DTT, room temperature, 30 min; NMR: 50 mM potassium phosphate pH 7.0, 50 uM 15N-protein, 298 K (C10) or 303 K (C20); settings: protein: recombinant; tags: His6
T1 sequence: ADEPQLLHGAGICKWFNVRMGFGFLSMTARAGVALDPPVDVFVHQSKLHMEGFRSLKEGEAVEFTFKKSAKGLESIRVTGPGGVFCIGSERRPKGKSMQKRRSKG

YB-1-CSD = YB-1-CSD (Homo sapiens, UniProt P67809 1-180); assay: NMR (1H-15N HSQC); 298 K; spectra stated as already published (ref 7); EMSA: 20 mM Tris pH 7.6, 40 mM NaCl, 0.5 mM DTT, room temperature, 30 min; NMR: 50 mM potassium phosphate pH 7.0, 50 uM 15N-protein, 298 K (C10) or 303 K (C20); settings: protein: recombinant
Sequence of YB-1-CSD (P67809 1-180): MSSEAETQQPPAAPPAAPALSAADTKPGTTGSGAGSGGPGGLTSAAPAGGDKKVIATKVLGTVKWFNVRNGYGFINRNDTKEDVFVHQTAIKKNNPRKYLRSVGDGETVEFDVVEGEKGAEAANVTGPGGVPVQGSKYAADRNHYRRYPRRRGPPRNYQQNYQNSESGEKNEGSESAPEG

CCCCCCCCCC (ssDNA) [poly(C) DNA C10]: binds (Lin28-CSD); binds (YB-1-CSD).
